# Results as given in doi:10.1101/2023.11.20.567910.
# Legend:
# [1] = target: HIV-1AD8 Env variants (N332 substituted) tested against V3-glycan bnAbs
# [2] = target: HIV-1AD8 Env variants (N332 substituted) tested against V3-glycan bnAbs; remark: listed apart in the source
substance,measurement,setting,value
2G12 (antibody),"IC50 of neutralisation: entry of Env-pseudotyped virus into Cf2-Th/CD4+CCR5+ cells (luciferase); told of most variants here, of all AD8 variants in p-0007",[1],> 10 µg/mL
10–1074 (antibody),IC50 of neutralisation: entry of Env-pseudotyped virus into Cf2-Th/CD4+CCR5+ cells (luciferase); told of most variants,[1],> 10 µg/mL
PGT121 (antibody),IC50 of neutralisation: entry of Env-pseudotyped virus into Cf2-Th/CD4+CCR5+ cells (luciferase),[2],< 1 µg/mL
